Assay [1] addresses T1, His-tagged ERG (Homo sapiens (Human), UniProt P11308).
T1 chain: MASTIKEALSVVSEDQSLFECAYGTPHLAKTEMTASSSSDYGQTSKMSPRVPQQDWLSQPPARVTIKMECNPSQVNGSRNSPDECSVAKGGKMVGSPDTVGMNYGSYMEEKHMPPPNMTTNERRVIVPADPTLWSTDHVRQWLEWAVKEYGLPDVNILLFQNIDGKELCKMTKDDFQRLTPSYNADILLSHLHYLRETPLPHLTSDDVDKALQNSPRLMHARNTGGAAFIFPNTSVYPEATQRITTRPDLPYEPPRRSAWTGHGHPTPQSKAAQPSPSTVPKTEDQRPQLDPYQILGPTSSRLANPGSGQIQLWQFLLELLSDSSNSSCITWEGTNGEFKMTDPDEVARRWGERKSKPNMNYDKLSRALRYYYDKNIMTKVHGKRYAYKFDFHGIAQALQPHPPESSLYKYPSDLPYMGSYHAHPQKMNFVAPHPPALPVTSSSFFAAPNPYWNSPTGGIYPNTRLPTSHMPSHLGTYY
Briefly: His-tag pull-down.

Assay [2] addresses T1, His-tagged ERG. Description: His-tag pull-down; AlphaScreen.

B1: FLAG-GST-EWS 459-656aa (protein)
chain: PPREGRGMPPPLRGGPGGPGGPGGPMGRMGGRGGDRGGFPPRGPRGSRGNPSGGGNVQHRAGDWQCPNPGCGNQNFAWRTECNQCKAPKPEGFLPPPFPPPGGDRGRGGPGGMRGGRGGLMDRGGPGGMFRGGRGGDRGGFRGGRGMDRGGFGGGRRGGPGGPPGPLMEQMGGRRGGRGGPGKMDKGEHRQERRDRPY
Turning to B1, the binding result with His-tagged ERG [1] is on record as “no binding”.

B2: FLAG-GST-EWS 1-355aa (protein)
chain: MASTDYSTYSQAAAQQGYSAYTAQPTQGYAQTTQAYGQQSYGTYGQPTDVSYTQAQTTATYGQTAYATSYGQPPTGYTTPTAPQAYSQPVQGYGTGAYDTTTATVTTTQASYAAQSAYGTQPAYPAYGQQPAATAPTRPQDGNKPTETSQPQSSTGGYNQPSLGYGQSNYSYPQVPGSYPMQPVTAPPSYPPTSYSSTQPTSYDQSSYSQQNTYGQPSSYGQQSSYGQQSSYGQQPPTSYPPQTGSYSQAPSQYSQQSSSYGQQSSFRQDHPSSMGVYGQESGGFSGPGENRSMSGPDNRGRGRGGFDRGGMSRGGRGGGRGGMGSAGERGGFNKPGGPMDEGPDLDLGPPVDPD
In the case of B2, the binding result in the assay with His-tagged ERG [2] is “binds”.

(Values after publication PMC7485968 (2020).)
